Kd and inhibition of soluble ztnf4-stimulated human B cell proliferation (3H thymidine, with IL-4) (fold molar excess) data for two molecules are collected here from EP1354598A2 (ZymoGenetics, Inc., dated 2003).

Experiment [1] concerns the target T1, soluble I^125-ztnf4 (human, UniProt Q9Y275 134-285, limits assumed, 125I-labelled).
T1 construct: also called ztnf4 sol; neutrokine alpha
Nature of the experiment: Scatchard analysis of soluble 125I-ztnf4 on stable BHK transfectants expressing BCMA.

Experiment [2] addresses soluble ztnf4 (human) (UniProt Q9Y275). Nature of the experiment: cell-based or functional assay.

T1 sequence (Q9Y275 134-285 limits assumed): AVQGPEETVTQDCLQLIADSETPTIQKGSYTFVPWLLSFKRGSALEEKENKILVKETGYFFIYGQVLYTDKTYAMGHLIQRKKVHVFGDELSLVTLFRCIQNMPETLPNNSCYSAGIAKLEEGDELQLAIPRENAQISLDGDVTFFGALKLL
Chain of soluble ztnf4 (human) (Q9Y275 134-285 limits assumed): as above

B1: BCMA (SEQ ID NO:8) (receptor)
chain: MLQMAGQCSQNEYFDSLLHACIPCQLRCSSNTPPLTCQRYCNASVTNSVKGTNAILWTCLGLSLIISLAVFVLMFLLRKISSEPLKDEFKNTGSGLLGMANIDLEKSRTGDEIILPRGLEYTVEECTCEDCIKSKPKVDSDHCFPLPAMEEGATILVTTKTNDYCKSLPAALSATEIEKSISAR
notes: also called BCMA-BHK
What is called Kd is the equilibrium constant for the complex coming apart. A lower Kd goes with a tighter complex. B1: binding in experiment [1] was characterised by a dissociation constant (Kd) of 1.25 nM. In other words, the single-digit nanomolar range.

B2: TACI-Ig soluble receptor (TACI-Fc4 fusion protein) (Fc fusion, part only; not given: Fc4 part, part only)
chain, part: MSGLGRSRRGGRSRVDQEERFPQGLWTGVAMRSCPEEQYWDPLLGTCMSCKTICNHQSQRTCAAFCRSLSCRKEQGKFYDHLLRDCISCASICGQHPKQCAYFCENKLRSPVNLPPELRRQRSGEVENNSDNSGRYQGLEHRGSEASPALPGLKLSADQVALVYS
In experiment [2], B2 returned an inhibition of soluble ztnf4-stimulated human B cell proliferation (3H thymidine, with IL-4) (fold molar excess) of 10.
